Assay results: the RNAGym collection of RNA variant scans (doi:10.1073/pnas.2313332121)

B1: TPR t1 (parent)
chain: GACCAAUCUGCCCUCAGAGCUCGAGAACAUCUUCGGAUGCAGAGGAGGCAGGCUUCGGUGGCGCGAUAGCGCCAACGUCCUCAACCUCCAAUGCAUCCCACCACAUGAUGAUGCCUGAAGAGCCUUGGUUUUUUG

Variants of: B1
Assay: polymerase ribozyme fitness, log enrichment relative to wild type (log ratio); higher = more active; in vitro selection for triplet polymerase activity
Procedure, shortened: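 Mutant libraries were PCR-built and transcribed for each subunit of a heterodimeric triplet polymerase ribozyme and selected for one round in triplicate at −7 °C, frozen, before gel excision of extended constructs and streptavidin-bead capture. Input and output libraries were Illumina-sequenced, keeping genotypes with ≥10 input reads and ≥1 read per output. Fitness is a logarithmic ratio of genotype to wild-type enrichment, in base 2, using inverse-variance-weighted replicate averages.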

| Variant | polymerase ribozyme fitness (log ratio) |
| --- | --- |
| G45A G63C G110A | -1.54 |
| G45C G58C | -0.221 |
| G45U G47C C85A C88U | -4.69 |
| G45U C124G U133A | 0.519 |
| G45C U132C | -1.51 |
| A46C C64A G69C C94A | -2.85 |
| G44U G47U U55C | -2.82 |
| A46C C114U | -2.43 |
| G47A U78C | -1.09 |
| G45A C53G G61A C79U C98U | -3.8 |
| G45C U55A C56A | -2.11 |
| A46G C53U | -1.01 |
| A46G C88U C97A | -5.17 |
| G45U C70A C115A G128U | -3.65 |
| A46G C56A C101G U126C | -2.14 |
| G45A C64G A68C C104A G117U | -6.22 |
| G47C C72G G113A U126A | -5.16 |
| G45A G52C | -1.37 |
| G45U C82A C102U G122A | -3.36 |
| A46U A91G | -1.96 |
| G47C C64U A90C C104U | -2.77 |

| Variant | polymerase ribozyme fitness (log ratio) |
| --- | --- |
| G45A A121U | 1.1 |
| G44U U112A | 0.425 |
| G45A G61A | -0.513 |
| G45A G61U | -0.292 |
| G45C G93U | -3.67 |
| A46G C49A U112C | 1.28 |
| A46U C62A | -2.13 |
| A46G G63C G110U U116A U130C | -4.2 |
| G45A C49G G60U U106C U112A | -0.821 |
| G47A C124G | 0.559 |
| A46G G77C C97U C124G | 0.934 |
| A46U C53A | -0.885 |
| A46U C56A G93A G120A C123U | -1.16 |
| G45A C89U U133A | -1.52 |
| G47C G48U C62U C85U A108U A111U G120C G122C | -6.85 |
| A46U C62U A91U A103G U106A C114U U131G | -6.47 |
| A46G A90C C99U U106C | -4.81 |
| G44U C72U | -1.36 |
| G45U U116G | -3.76 |
| G47C C49U C62U | -2.46 |
| G44U G65A | -6.04 |

| Variant | polymerase ribozyme fitness (log ratio) |
| --- | --- |
| A46U A91C C115G | -3.55 |
| G45U C56A | -2.01 |
| G47A A95C | -1.79 |
| A46C G113A G128A | -4.59 |
| A46G G127A | -1.96 |
| G44U G63U | -2.03 |
| A46U A100U | -1.69 |
| G47C C56U | -1.01 |
| A46U C53A A111U | -4.45 |
| G47A C53G C101U U131A | -1.26 |
| A46C C49G C73U | -1.01 |
| G47C C82U | -1.27 |
| G47C C102A | -3.89 |
| G45U G110A | -2.13 |
| G45A C82A | -1.1 |
| G47A U54A A90G U131G | -0.834 |
| A46U G77A C123A U129A | -2.69 |
| G45U G51A C94G | -5.45 |
| G45A C94U G120C | 0.045 |
| A46G U54G C62G U78C C123U | -4.11 |
| G44U G48U G57C C104A | -3.32 |

| Variant | polymerase ribozyme fitness (log ratio) |
| --- | --- |
| A46C C56U U78A A90G C94U A111C | 0.0877 |
| G47C C62U C88U | -1.75 |
| G45U A66C G93C U96C C115A | -4.28 |
| G45C U129A | -2.61 |
| G45U C104U A119G U130A | -1.09 |
| G45C G69C | -2.23 |
| A46G C86G | -1.96 |
| A46U C115A | -1.98 |
| G45C C62A | -2.24 |
| G45C U55C A75U A95G U126A U129A | -4.26 |
| G44U C82U U106G G120A | -0.344 |
| G47A C76A C115U | -3.07 |
| G45C C53G C73A | -0.795 |
| G47A C115U | -2.3 |
| G45C C53U U78A U112C | 0.64 |
| A46U C72G | -1.4 |
| G47C A66U A119U A121U | -0.0171 |
| G45A C53G C64U | -0.958 |
| A46U A74C U96A | -1.66 |
| G45C U96A G113C | -3.21 |
